In patent US20240109963A1 one finds T cell activation EC50 (CD69-positive cells), T cell activation EC50 (CD69-positive cells), unpurified supernatant and EC50 data, which are given here for 1 substance.

Assay [1] concerns the target full-length human Claudin 18.2 on MIA PaCa-2 cells (MIA PaCa-2+ Claudin 18.2) (human) (UniProt P56856). As to the kind of experiment: cell-based or functional assay.
The target of assay [2] is Claudin 18.2 on CHO cells (CHO+ Claudin 18.2) (UniProt P56856). As to the kind of experiment: flow cytometry on Claudin 18.2-expressing CHO cells (summary table). On the technique in general: Flow cytometry measures light scatter and fluorescence of single cells or particles in a stream.
Claudin 18.2 on CHO cells (CHO+ Claudin 18.2), sequence (P56856 other isoform, or with tags, fused parts or gaps limits assumed): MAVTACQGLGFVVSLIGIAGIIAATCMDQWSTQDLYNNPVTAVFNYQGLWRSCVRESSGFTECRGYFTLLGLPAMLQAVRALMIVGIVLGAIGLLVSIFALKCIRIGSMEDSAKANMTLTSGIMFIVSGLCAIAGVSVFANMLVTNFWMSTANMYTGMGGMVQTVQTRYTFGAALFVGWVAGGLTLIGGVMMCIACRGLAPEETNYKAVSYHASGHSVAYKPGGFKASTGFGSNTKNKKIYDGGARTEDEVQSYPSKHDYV
Another assay deals with CD3 on Jurkat cells. As to the kind of experiment: flow cytometry on Jurkat cells, CD3 binding (T cell) (summary table).
CD3 on Jurkat cells, sequence (P07766 23-207, chain 1 of 3): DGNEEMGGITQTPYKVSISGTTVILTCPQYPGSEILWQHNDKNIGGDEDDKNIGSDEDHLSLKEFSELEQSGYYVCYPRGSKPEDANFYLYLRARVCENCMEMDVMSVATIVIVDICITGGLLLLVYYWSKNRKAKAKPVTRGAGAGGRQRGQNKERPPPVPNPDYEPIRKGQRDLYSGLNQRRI
CD3 on Jurkat cells, sequence (P09693 23-182, chain 2 of 3, further chain): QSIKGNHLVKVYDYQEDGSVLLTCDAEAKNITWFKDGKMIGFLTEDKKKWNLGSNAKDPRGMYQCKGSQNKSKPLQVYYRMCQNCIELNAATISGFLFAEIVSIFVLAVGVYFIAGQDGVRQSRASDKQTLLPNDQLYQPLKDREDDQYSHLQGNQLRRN
CD3 on Jurkat cells, sequence (P04234 22-171, chain 3 of 3, further chain): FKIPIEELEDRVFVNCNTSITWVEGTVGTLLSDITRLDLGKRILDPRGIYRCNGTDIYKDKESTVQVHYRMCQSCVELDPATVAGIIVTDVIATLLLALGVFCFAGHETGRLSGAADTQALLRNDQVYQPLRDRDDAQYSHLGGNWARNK

full-length human Claudin 18.2 on MIA PaCa-2 cells (MIA PaCa-2+ Claudin 18.2) (human), sequence (P56856 other isoform, or with tags, fused parts or gaps limits assumed): as the sequence (P56856 other isoform, or with tags, fused parts or gaps limits assumed) above

One may read the EC50 as the concentration needed to bring the measured effect to its halfway point. With AMG910 analog (bispecific antibody), the T cell activation EC50 (CD69-positive cells) in assay [1] is 0.0345 µg/mL. In assay [1], this substance showed a T cell activation EC50 (CD69-positive cells), unpurified supernatant of 0.0577 µg/mL. Further, the EC50 in assay [2] came to 0.047 µg/mL; in the assay with CD3 on Jurkat cells it was 0.485 µg/mL.
